Measured values from paper PMC7415141, “Identification and characterization of cytosolic malate dehydrogenase from the liver fluke Fasciola gigantica” (Scientific Reports, 2020).

B1: FgMDH (cytosolic malate dehydrogenase of Fasciola gigantica) (Fasciola gigantica) (protein)
chain: MAPVKVLITGAAGQIGYNLAGMVARGDMLGPNQELILHLFDITPMLNSLHGLQMELDDCAFPLVREVVITDKAEVAFDDIDIALMVGAMPRKEGMERKDLLQANANIFKEQGKVLNEKAKKTVKVIVVGNPANTNALIMMKNAPSIPKENFSAMTRLDHNRATAQIAKRLKIPCTAVKNCVIWGNHSATQFPDVSHAVASIGGKDVKVWDAIKDEEWLKNEFVTTVQKRGAAVIAARKLSSAMSAAKAVVDHIHDWWYGTKPGEWVSMSVWSDGSYGAPVDVFFSFPVEIKDKKWTIVKDLSMDDWGKSMFKTTAEELSEEKVAALGK
notes: ~36 kDa, dimer ~72 kDa

What was measured:
[1] = target: cytosolic malate dehydrogenase from Fasciola gigantica (Fasciola gigantica); assay: SEC; gel filtration on Superdex 200 (AKTA FPLC), buffer B (50 mM phosphate pH 7.6, 150 mM NaCl, 10% glycerol), room temperature, 0.3 mL/min; column calibrated with mass standards; single peak at about 15.3 mL, ~72 kDa against ~36 kDa for the monomer
[2] = substrate: NC(=O)C1=CN([C@@H]2O[C@H](COP(=O)(O)OP(=O)(O)OC[C@H]3O[C@@H](n4cnc5c(N)ncnc54)[C@H](O)[C@@H]3O)[C@@H](O)[C@H]2O)C=CC1; assay: purified protein; format: biochemical, Fasciola gigantica; settings: co-substrate oxaloacetate (0.2 mM), 50 mM Tris-Cl, pH 8.0, 25 °C, 50 nM enzyme, varied: cofactor
[3] = substrate: NC(=O)c1ccc[n+]([C@@H]2O[C@H](COP(=O)(O)OP(=O)(O)OC[C@H]3O[C@@H](n4cnc5c(N)ncnc54)[C@H](O)[C@@H]3O)[C@@H](O)[C@H]2O)c1; assay: purified protein; format: biochemical, Fasciola gigantica; settings: co-substrate malate (assay text: 3 mM, misprinted as MDH), 50 mM glycine buffer, pH 9.6, 25 °C, 50 nM enzyme, varied: cofactor
[4] = substrate: O=C(O)CC(=O)C(=O)O; assay: purified protein; format: biochemical, Fasciola gigantica; settings: co-substrate NADH (0.21 mM), 50 mM Tris-Cl, pH 8.0, 25 °C, 50 nM enzyme
[5] = substrate: O=C(O)C[C@H](O)C(=O)O; assay: purified protein; format: biochemical, Fasciola gigantica; settings: co-substrate NAD+ (0.5 mM), 50 mM glycine buffer, pH 9.6, 25 °C, 50 nM enzyme

Row | Molecule | stoichiometry N [1] | Km [2] [µM] | Vmax [2] [µmol/min] | Km [3] [µM] | Vmax [3] [µmol/min] | Km [4] [µM] | Vmax [4] [µmol/min] | Km [5] [µM] | Vmax [5] [µmol/min]
1 | cytosolic malate dehydrogenase from Fasciola gigantica (enzyme) | 2 |  |  |  |  |  |  |  | 
2 | B1 |  | 141 ± 54 | 3.42 | 309 ± 15 | 18.7 | 276 ± 92 | 4.1 | 447 ± 47 | 5.45
